The text below walks through data of patent US12545899B2, “Luciferase enzymes for use with thermostable luciferins in bioluminescent assays” (Promega Corporation, priority 2018, dated 2026).

The Km is the substrate concentration at which the rate is half of its maximum.

The nature of data set [1]: Differential scanning fluorimetry (DSF) analysis. Format: physicochemical. The conditions noted are these: Table 12. In a few lines:
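Enzymes mixed with Sypro Orange at 5× final, heated 30–95° C at 1° C per minute with fluorescence read every 60 s. Storage buffer 50 mM HEPES pH 7.5, 100 mM NaCl, 2 mM EDTA, or for luciferase variants 20 mM HEPES pH 7.5, 200 mM NaCl, 1 mM EDTA; per-minute fluorescence change plotted against temperature.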
For orientation: DSF heats the sample and reads unfolding from a dye or from intrinsic fluorescence.

Data set [2] can be described thus: Kinetic analysis of thermostable variants with 400 fM-4 mM CS0280 (Table 12). In kind it is biochemical. Particulars: 4 mM ATP. The protocol:
Table 12 includes representative results of kinetic analysis of the thermostable variants with 400 fM-4 mM CS0280. This panel of enzyme variants have a combination of improved thermostability and brightness with CS0280 relative to their progenitor enzyme variants MK134 and MK137.

The nature of data set [3]: Kinetic analysis of thermostable variants with CS0333 (Tables 13, 14). In kind it is biochemical. The conditions noted are these: 2 mM ATP. The source says:
(§1) Tables 13 and 14 include representative results of kinetic analysis of the thermostable variants with D/L luciferin, CS0333, and CS0280. The panel of enzyme variants highlight amino acid substitutions that further improve upon MK0137 in maximum luminescence (Vmax) or Km in different buffers with the different substrates tested (D/L-luciferin, CS0333, and CS0280). In particular, enzyme variants MK0151 and MK153 show improvements relative to MK0137 across multiple buffers with multiple substrates.

Data set [4] can be described thus: Kinetic analysis of thermostable variants with CS0280 (Tables 13, 14). Format: biochemical. The conditions noted are these: 2 mM ATP.
Excerpt: as §1

The nature of data set [5]: Kinetic analysis of thermostable variants with D/L-luciferin (Tables 13, 14). In kind it is biochemical. Particulars: 2 mM ATP.
Excerpt: as §1

B1: MK0142: SEQ ID NO: 109; H244W+S193A+N228D+L305F+S306P+I109V+C38R+F55I+Y108F+A316W+Y339M+T342S+V348I+T289R (protein)
chain: MADKNILYGPEPFYPLEDGTAGEQMFDALSRYAAIPGRIALTNAHTKENVLYEEILKLSCRLAESFKKYGLKQNDTIAVCSENSLQFFLPVIASLYLGIIVAPVNDKFVERELIHSLGIVKPRIVFCSKNTFQKVLNVKSKLKSIETIIILDLNEDLGGYQCLNNFISQNSDSNLDVKKFKPYSFNRDDQVAAIMFSSGTTGLPKGVMLTHKNIVARFSIAKDPTFGDAINPTSAILTVIPFHWGFGMMTTLGYFTCGFRVVLMHTFEEKLFLQSLQDYKVESTLLVPRLMAFLAKSALVEKYDFPHLKEIASGGWPLSKEIGEMVKKRFKLNFVRQGMGLSETTSAILITPKGDAKPGSTGKIVPLHAVKVVDPTTGKILGPNEPGELYFKGPMIMKGYYNNEEATKAIIDNDGWLRSGDIAYYDNDGHFYIVDRLKSLIKYKGYQVAPAEIEGILLQHPYIVDAGVTGIPDEAAGELPAAGVVVQTGKYLNEQIVQDYVASQVSTAKWLRGGVKFLDEIPKGSTGKIDRKVLRQMLEKHTNGHHHHHHHH
As for B1, the “DSF Tm (° C.)” value in data set [1] is 71 °C. Also, the Michaelis constant (Km) in data set [2] (BrightGlo Buffer) was 4.98 µM; in data set [2] (Detection Reagent Buffer), 32.3 µM. Besides, the “Vmax (RLU)” value is listed as 1,409,786 RLU in data set [2] (BrightGlo Buffer) and 70,257 RLU in data set [2] (Detection Reagent Buffer).

B2: MK0145: SEQ ID NO: 111; H244W+S193A+N228D+L305F+S306P+I109V+C38R+F55I+Y108F+A316W+Y339M+T342S+V348I+D435G (protein)
chain: MADKNILYGPEPFYPLEDGTAGEQMFDALSRYAAIPGRIALTNAHTKENVLYEEILKLSCRLAESFKKYGLKQNDTIAVCSENSLQFFLPVIASLYLGIIVAPVNDKFVERELIHSLGIVKPRIVFCSKNTFQKVLNVKSKLKSIETIIILDLNEDLGGYQCLNNFISQNSDSNLDVKKFKPYSFNRDDQVAAIMFSSGTTGLPKGVMLTHKNIVARFSIAKDPTFGDAINPTSAILTVIPFHWGFGMMTTLGYFTCGFRVVLMHTFEEKLFLQSLQDYKVESTLLVPTLMAFLAKSALVEKYDFPHLKEIASGGWPLSKEIGEMVKKRFKLNFVRQGMGLSETTSAILITPKGDAKPGSTGKIVPLHAVKVVDPTTGKILGPNEPGELYFKGPMIMKGYYNNEEATKAIIDNDGWLRSGDIAYYDNDGHFYIVGRLKSLIKYKGYQVAPAEIEGILLQHPYIVDAGVTGIPDEAAGELPAAGVVVQTGKYLNEQIVQDYVASQVSTAKWLRGGVKFLDEIPKGSTGKIDRKVLRQMLEKHTNGHHHHHHHH
Turning to B2, the Km in data set [3] (BrightGlo Buffer) is 6.83 µM; in data set [3] (Detection Reagent Buffer), 21.5 µM; in data set [2] (BrightGlo Buffer), 11.9 µM; in data set [2] (Detection Reagent Buffer), 50.6 µM; in data set [4] (BrightGlo Buffer), 5.72 µM; in data set [4] (Detection Reagent Buffer), 391 µM. In addition, the values for the Michaelis constant (Km) in data set [5] (BrightGlo Buffer) and in data set [5] (Detection Reagent Buffer) were 0.136 µM and 0.227 µM, respectively. The “Vmax (RLU)” value in data set [3] (BrightGlo Buffer) is 2,891,897 RLU; in data set [3] (Detection Reagent Buffer), 591,292 RLU; in data set [2] (BrightGlo Buffer), 1,193,838 RLU; in data set [2] (Detection Reagent Buffer), 66,768 RLU; in data set [4] (BrightGlo Buffer), 368,599 RLU; in data set [4] (Detection Reagent Buffer) it was 38,794 RLU. Also, the “Vmax (RLU)” value in data set [5] (BrightGlo Buffer) was 334,536 RLU; in data set [5] (Detection Reagent Buffer), 41,310 RLU. Further, in data set [1], the “DSF Tm (° C.)” value amounted to 72 °C.

B3: MK0146: SEQ ID NO: 112; H244W+S193A+N228D+L305F+S306P+I109V+C38R+F55I+Y108F+A316W+Y339M+T342S+V348I+L437R (protein)
chain: MADKNILYGPEPFYPLEDGTAGEQMFDALSRYAAIPGRIALTNAHTKENVLYEEILKLSCRLAESFKKYGLKQNDTIAVCSENSLQFFLPVIASLYLGIIVAPVNDKFVERELIHSLGIVKPRIVFCSKNTFQKVLNVKSKLKSIETIIILDLNEDLGGYQCLNNFISQNSDSNLDVKKFKPYSFNRDDQVAAIMFSSGTTGLPKGVMLTHKNIVARFSIAKDPTFGDAINPTSAILTVIPFHWGFGMMTTLGYFTCGFRVVLMHTFEEKLFLQSLQDYKVESTLLVPTLMAFLAKSALVEKYDFPHLKEIASGGWPLSKEIGEMVKKRFKLNFVRQGMGLSETTSAILITPKGDAKPGSTGKIVPLHAVKVVDPTTGKILGPNEPGELYFKGPMIMKGYYNNEEATKAIIDNDGWLRSGDIAYYDNDGHFYIVDRRKSLIKYKGYQVAPAEIEGILLQHPYIVDAGVTGIPDEAAGELPAAGVVVQTGKYLNEQIVQDYVASQVSTAKWLRGGVKFLDEIPKGSTGKIDRKVLRQMLEKHTNGHHHHHHHH
In the case of B3, the “DSF Tm (° C.)” value in data set [1] was found to be 72 °C. In data set [2] (BrightGlo Buffer), the Michaelis-Menten constant (Km) amounted to 4.21 µM and the “Vmax (RLU)” value was 1,114,607 RLU. For the same molecule, in data set [2] (Detection Reagent Buffer), the Km came to 33.3 µM and the “Vmax (RLU)” value is listed as 55,964 RLU.

B4: MK0144: SEQ ID NO: 110; H244W+S193A+N228D+L305F+S306P+I109V+C38R+F55I+Y108F+A316W+Y339M+T342S+V348I+K353R (protein)
chain: MADKNILYGPEPFYPLEDGTAGEQMFDALSRYAAIPGRIALTNAHTKENVLYEEILKLSCRLAESFKKYGLKQNDTIAVCSENSLQFFLPVIASLYLGIIVAPVNDKFVERELIHSLGIVKPRIVFCSKNTFQKVLNVKSKLKSIETIIILDLNEDLGGYQCLNNFISQNSDSNLDVKKFKPYSFNRDDQVAAIMFSSGTTGLPKGVMLTHKNIVARFSIAKDPTFGDAINPTSAILTVIPFHWGFGMMTTLGYFTCGFRVVLMHTFEEKLFLQSLQDYKVESTLLVPTLMAFLAKSALVEKYDFPHLKEIASGGWPLSKEIGEMVKKRFKLNFVRQGMGLSETTSAILITPRGDAKPGSTGKIVPLHAVKVVDPTTGKILGPNEPGELYFKGPMIMKGYYNNEEATKAIIDNDGWLRSGDIAYYDNDGHFYIVDRLKSLIKYKGYQVAPAEIEGILLQHPYIVDAGVTGIPDEAAGELPAAGVVVQTGKYLNEQIVQDYVASQVSTAKWLRGGVKFLDEIPKGSTGKIDRKVLRQMLEKHTNGHHHHHHHH
With B4, in data set [1], the “DSF Tm (° C.)” value is 73 °C. Besides, in data set [2] (BrightGlo Buffer), the Km was found to be 10.5 µM and the “Vmax (RLU)” value is listed as 1,586,262 RLU. Besides, in data set [2] (Detection Reagent Buffer), the Km was 35.4 µM and the “Vmax (RLU)” value was 43,744 RLU.

B5: MK0139: SEQ ID NO: 107; H244W+S193A+N228D+L305F+S306P+I109V+C38R+F55I+Y108F+A316W+Y339M+T342S+V348I+I240V (protein)
chain: MADKNILYGPEPFYPLEDGTAGEQMFDALSRYAAIPGRIALTNAHTKENVLYEEILKLSCRLAESFKKYGLKQNDTIAVCSENSLQFFLPVIASLYLGIIVAPVNDKFVERELIHSLGIVKPRIVFCSKNTFQKVLNVKSKLKSIETIIILDLNEDLGGYQCLNNFISQNSDSNLDVKKFKPYSFNRDDQVAAIMFSSGTTGLPKGVMLTHKNIVARFSIAKDPTFGDAINPTSAILTVVPFHWGFGMMTTLGYFTCGFRVVLMHTFEEKLFLQSLQDYKVESTLLVPTLMAFLAKSALVEKYDFPHLKEIASGGWPLSKEIGEMVKKRFKLNFVRQGMGLSETTSAILITPKGDAKPGSTGKIVPLHAVKVVDPTTGKILGPNEPGELYFKGPMIMKGYYNNEEATKAIIDNDGWLRSGDIAYYDNDGHFYIVDRLKSLIKYKGYQVAPAEIEGILLQHPYIVDAGVTGIPDEAAGELPAAGVVVQTGKYLNEQIVQDYVASQVSTAKWLRGGVKFLDEIPKGSTGKIDRKVLRQMLEKHTNGHHHHHHHH
For the molecule B5, the “DSF Tm (° C.)” value in data set [1] was 72 °C. Also, in data set [2] (BrightGlo Buffer), the Km stood at 15.7 µM and the “Vmax (RLU)” value was 764,421 RLU. In addition, in data set [2] (Detection Reagent Buffer), the Km was determined as 128 µM and the “Vmax (RLU)” value was 35,633 RLU.

B6: MK0147: SEQ ID NO: 113; H244W+S193A+N228D+L305F+S306P+I109V+C38R+F55I+Y108F+A316W+Y339M+T342S+V348I+W510R (protein)
chain: MADKNILYGPEPFYPLEDGTAGEQMFDALSRYAAIPGRIALTNAHTKENVLYEEILKLSCRLAESFKKYGLKQNDTIAVCSENSLQFFLPVIASLYLGIIVAPVNDKFVERELIHSLGIVKPRIVFCSKNTFQKVLNVKSKLKSIETIIILDLNEDLGGYQCLNNFISQNSDSNLDVKKFKPYSFNRDDQVAAIMFSSGTTGLPKGVMLTHKNIVARFSIAKDPTFGDAINPTSAILTVIPFHWGFGMMTTLGYFTCGFRVVLMHTFEEKLFLQSLQDYKVESTLLVPTLMAFLAKSALVEKYDFPHLKEIASGGWPLSKEIGEMVKKRFKLNFVRQGMGLSETTSAILITPKGDAKPGSTGKIVPLHAVKVVDPTTGKILGPNEPGELYFKGPMIMKGYYNNEEATKAIIDNDGWLRSGDIAYYDNDGHFYIVDRLKSLIKYKGYQVAPAEIEGILLQHPYIVDAGVTGIPDEAAGELPAAGVVVQTGKYLNEQIVQDYVASQVSTAKRLRGGVKFLDEIPKGSTGKIDRKVLRQMLEKHTNGHHHHHHHH
In the case of B6, the “DSF Tm (° C.)” value in data set [1] was 71 °C. In data set [2] (BrightGlo Buffer), the Km is 7.12 µM and the “Vmax (RLU)” value is given as 1,101,042 RLU. Further, in data set [2] (Detection Reagent Buffer), the Michaelis constant (Km) came to 26.1 µM and the “Vmax (RLU)” value is reported as 62,099 RLU.
